Measurements: patent US20250034266A1 (ZAI LAB SHANGHAI, published 2025)
Where a chain is given by its changes, count along the chain named. In names and notes the source's numbering stands.

B1: 348E2D11 (antibody, V domains shown)
VH: QVQLVETGGGLVRPGNSLKLSCVTSGFSFSNYRMHWLRQPPGKRLEWIAVITVKSDNYGANYAESVKGRFTISRDDSKSSVYLQMNRLREEDTATYYCSSLGRVAYWGQGTLVTVSA
VL: DIVMTQSQKFMFTSVGDRVSVTCKASQNVDTNVVWYQQKPGQSPKALIYSASSRYSGVPDRFTGSGSGTDFTLTISNVQSEDLAEYFCQQHNSFPLTFGAGTKLELI
notes: Murine hybridoma antibody
B2: 191E12H8 (antibody, V domains shown)
VH: DVQLQESGPGLVKPSQSLSLTCSVTGYSITSGYYWNWIRQFPGNKLEWMGYISYDGSNNYNPSLKNRISITRDISKNQFFLKLNSVTTEDTATYYCARQIGLRRGAMDYWGQGTSVTVSS
VL: DIQMTQSSSYLSVSLGGRVTITCKASDHINTWLAWYQQKPGNAPRLLISGSTSLKAGVASRFSGSGSGKDYTLTITSLQTEDVATYYCQQYWGIPFTFGGGTKLEIK
notes: Murine hybridoma antibody
B3: 204A2G12 (antibody, V domains shown)
VH: B2 VH with S57T, I74T, N84T, I100V, G105A, A106W, M107F, D108A, S115L, S120A
VL: DIQMTQSSSFLSVSLGGRVTITCKASDHINYWLAWYQQKPGNAPRLLISGATSLETGVPSRFSGSGSGKDYTLTITSLQNEDVATYYCHQYWSTPTFGSGTKLEIK
notes: Murine hybridoma antibody
B4: 234G9C12 (antibody, V domains shown)
VH: B2 VH with I52T, L64F, Y109H
VL: B2 VL with T31N, K55R
notes: Murine hybridoma antibody; also called 234G4C12
B5: 262C2G7 (antibody, V domains shown)
VH: B2 VH with Q3H
VL: B2 VL with T31N
notes: Murine hybridoma antibody
B6: 273H2G6 (antibody, V domains shown)
VH: B2 VH with I100V
VL: B2 VL with T31N, T74S, G93S, F96Y
notes: Murine hybridoma antibody
B7: 149F2C10 (antibody, V domains shown)
VH: EVQLVESGGGLVQPKGSLKLSCAASGFTFNTYAMNWVRQAPGKGLEWVARIRSKSNFYATYYADSVKDRFTISRDDSQDMLYLQMNILKTEDTAIYYCVRGRDYGSSYAMDYWGQGTSVTVSS
VL: DIVMTQAAPSVPVTPGESVSISCRSSKSLLHSNGNTYLYWFLQRPGQSPQLLIYRMSNLASGVPDRFSGSGSGTAFTLRISRVEAEDVGVYYCMQHLEYPLTFGAGTKLELK
notes: also called 1491F2C0
B8: 153D4G2 (antibody, V domains shown)
VH: B7 VH
VL: B7 VL
notes: Murine hybridoma antibody; also called 153D3G2; 1531D4G2
B9: 164G10D6 (antibody, V domains shown)
VH: B7 VH
VL: B7 VL
notes: Murine hybridoma antibody; also called 164G10C6
B10: 160D1E3 (antibody, V domains shown)
VH: B7 VH with F57Y, I87N
VL: B7 VL
notes: Murine hybridoma antibody
B11: Hu149-12G1m (antibody, human IgG1)
heavy: EVQLVESGGGLVQPGGSLKLSCAASGFTFNTYAMNWVRQASGKGLEWVGRIRSKSNFYATAYAASVKGRFTISRDDSKNTAYLQMNSLKTEDTAVYYCTRGKEYGSSYAMDYWGQGTLVTVSSASTKGPSVFPLAPSSKSTSGGTAALGCLVKDYFPEPVTVSWNSGALTSGVHTFPAVLQSSGLYSLSSVVTVPSSSLGTQTYICNVNHKPSNTKVDKKVEPKSCDKTHTCPPCPAPELVGGPSVFLLPPKPKDTLMISRTPEVTCVVVDVSHEDPEVKFNWYVDGVEVHNAKTKPPEEQYNSTLRVVSVLTVLHQDWLNGKEYKCKVSNKALPAPIEKTISKAKGQPREPQVYTLPPSRDELTKNQVSLTCLVKGFYPSDIAVEWESNGQPENNYKTTPLVLDSDGSFFLYSKLTVDKSRWQQGNVFSCSVMHEALHNHYTQKSLSLSPGK
VL: DIVMTQSPLSLPVTPGEPASISCRSSKSLLHSNANTYLYWFLQKPGQSPQLLIYRMSNLASGVPDRFSGSGSGTDFTLKISRVEAEDVGVYYCMQHLEYPLTFGGGTKVELK
notes: suffix G1m read as for Hu149-11G1m (L235V/F243L/R292P/Y300L/P396L)
B12: 499B1A5 (antibody, V domains shown)
VH: B7 VH with F57N, D79S, I87N, I95M, G101H, R102G, D103R, Y104S, S106Y, S107L
VL: DIVMTQAAFSNPVTLGTSASISCRSSKSLLHSNGITYLYWYLQKPGQSPQLLIYQMSNLASGVPDRFSSSGSGTDFTLRISRVEAEDVGVYYCAQSLELPLTFGAGTKLELK
notes: Murine hybridoma antibody (supernatant)

Target: T1, human CCR8 (human, UniProt P51685 1-355)
T1 construct: whole, on cells; In the β-arrestin assay CCR8 is fused to the ProLink (PK) tag; also called hCCR8; CHO-K1-human CCR8
Test: FACS on CHO-K1-human CCR8 cells
Procedure: (§1) The binding affinities of purified antibodies were determined on human CCR8 and cynomolgus CCR8 over-expressing cells. Briefly, CFSE (Life technology, Cat #: C34554) labeled CHO-K1-human CCR8 cells mixed with CHO-K1 cells, CFSE labeled HEK293-human CCR8 cells mixed with H1EK293 cells, or CFSE labeled H1EK293-cynomolgus CCR8 cells mixed with HTEK293 cells were used in the assay. The mix ratio was 1:1. A total of 5×10⁴ mixed cells for each well were seeded in 96-well plate and washed by FACS buffer (DPBS containing 10% FBS) once. Cells were incubated by series diluted purified hybridoma antibodies for 1 hour at 4° C. Antibodies were prepared with 3-fold serial dilution ranging from 200 nM to 0.003 nM in FACS buffer. After primary antibody incubation, cells were washed by FACS buffer for three times. Then, cells were stained with secondary antibody (Alexa Flu647-conj gated rabbit anti-mouse IgG, Jackson ImmunoResearch, #315606046) at 1:600 dilution in FACS buffer and incubated for 0.5 hour at 4° C. […] FlowJo software was used for analysis. Data was plotted as the logarithm of antibody concentration versus mean fluorescence signals. EC₅₀ values were calculated in GraphPad Prism 8 (GraphPad Software) using a log(agonist) vs. response-Variable slope (4 parameters) curve fit. […] The EC₅₀s of the selected antibodies on human CCR8 are less than 5 nM except those of 262C2G7 and 234G9C12. The EC₅₀s of the selected antibodies on cynomolgus CCR8 are less than 1 nM except that of 348E2D11 (Table 8).
T1 sequence (P51685 whole entry, the tested form may be a part): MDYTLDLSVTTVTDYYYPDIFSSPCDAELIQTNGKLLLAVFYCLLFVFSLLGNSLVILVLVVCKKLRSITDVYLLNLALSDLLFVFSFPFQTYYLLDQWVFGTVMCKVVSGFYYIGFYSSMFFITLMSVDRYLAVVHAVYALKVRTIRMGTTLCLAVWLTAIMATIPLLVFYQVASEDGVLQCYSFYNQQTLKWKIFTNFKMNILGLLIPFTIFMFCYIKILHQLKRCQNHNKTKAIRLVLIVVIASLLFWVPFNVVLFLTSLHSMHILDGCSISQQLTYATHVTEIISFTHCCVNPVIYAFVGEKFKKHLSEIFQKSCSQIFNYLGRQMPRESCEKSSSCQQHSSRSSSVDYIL

Binder	EC50	Max MFI
B1	397 pM	51500 MFI
B2	2250 pM	24000 MFI
B3	334 pM	10200 MFI
B4	18500 pM	73900 MFI
B5	126000 pM	86400 MFI
B6	137 pM	8490 MFI
B7	878 pM	50700 MFI
B8	640 pM	51400 MFI
B9	652 pM	54900 MFI
B10	456 pM	51500 MFI

Target: T1, human CCR8
Test: FACS on HEK293-human CCR8 cells
Procedure: as §1

Binder	EC50	Max MFI
B1	111 pM	11000 MFI
B2	1500 pM	10700 MFI
B3	142 pM	3620 MFI
B4	1420 pM	9840 MFI
B5	139 pM	7210 MFI
B6	149 pM	4680 MFI
B7	346 pM	12000 MFI
B8	240 pM	11600 MFI
B9	277 pM	11900 MFI
B10	278 pM	11900 MFI

Target: T2, human CCR8 (human, UniProt P51685 1-355)
T2 construct: whole, on cells; also called hCCR8
Test: FACS on CHO-K1-human CCR8 cells
T2 sequence (P51685 whole entry, the tested form may be a part): as above

Binder	EC50	Max MFI
B11	66.8 pM	183000 MFI

Target: T3, cynomolgus CCR8 (cynomolgus, UniProt G7NYJ2 1-355)
T3 construct: whole, on cells; also called HEK293-Cynomolgus CCR8; ExpiCHO-S cynomolgus CCR8
Test: FACS on HEK293-Cynomolgus CCR8 cells
Procedure: as §1
T3 sequence (G7NYJ2 entry or part of it): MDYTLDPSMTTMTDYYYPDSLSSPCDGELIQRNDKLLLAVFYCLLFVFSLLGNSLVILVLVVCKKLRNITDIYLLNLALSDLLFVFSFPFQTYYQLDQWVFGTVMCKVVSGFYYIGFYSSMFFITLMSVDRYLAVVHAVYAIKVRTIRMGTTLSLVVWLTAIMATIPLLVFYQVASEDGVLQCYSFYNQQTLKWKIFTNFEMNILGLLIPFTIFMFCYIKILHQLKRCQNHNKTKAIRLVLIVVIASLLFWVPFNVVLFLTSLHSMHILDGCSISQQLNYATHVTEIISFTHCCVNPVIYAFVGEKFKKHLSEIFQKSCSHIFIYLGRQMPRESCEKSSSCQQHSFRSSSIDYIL

Binder	Max MFI	EC50
B1	7580 MFI	
B2	5190 MFI	397 pM
B3	3200 MFI	163 pM
B4	4140 MFI	212 pM
B5	2940 MFI	216 pM
B6	3500 MFI	154 pM
B7	8830 MFI	479 pM
B8	10700 MFI	699 pM
B9	8290 MFI	320 pM
B10	8940 MFI	422 pM

Target: T4, cynomolgus CCR8 (cynomolgus, UniProt G7NYJ2 1-355)
T4 construct: whole, on cells
Test: FACS on HEK293-cynomolgus CCR8 cells
T4 sequence (G7NYJ2 entry or part of it): as above

Binder	EC50	Max MFI
B11	183 pM	3.24e+06 MFI

Target: T2, human CCR8
Test: FACS on HuT78 cells (endogenous human CCR8)

Binder	EC50	Max MFI
B11	209 pM	55600 MFI

Target: T3, cynomolgus CCR8
Test: FACS, hybridoma supernatant on cynomolgus CCR8 cells
Procedure: (§2) Binding of hybridoma supernatant on CHO-K1-human CCR8 and ExpiCHO-S cynomolgus CCR8 cells. A total of 660 96-well plates were seeded and screened by FACS binding from the hybridoma derived from immunized animals.
(§3) To obtain antibodies cross-reactive to human and cynomolgus CCR8, hybridomas from mice immunized with human and cynomolgus CCR8 DNAs were screened by FACS. Briefly, 50 μL ExpiCHO-S cells transfected with human CCR8 or cynomolgus CCR8 (cell density: 2×10⁶ cells/mL, viability>90%) were incubated with equal volume hybridoma supernatant in 96 well plate (Corning) at 4° C. for 1 hour. […] Finally, the mixture was washed and resuspended with FACS buffer, and subjected to FACS analysis on BD FACS Celesta.

Binder	Binding Ratio (GFP + MFI)/(GFP - MFI)
B1	74.2
B2	91.4
B3	133
B4	101
B5	99.8
B6	112
B7	98.2
B8	127
B12	35.1
B9	102
B10	92.2

Target: T1, human CCR8
Test: FACS, hybridoma supernatant on CHO-K1-human CCR8 cells
Procedure: as §2, §3

Binder	Binding Ratio (GFP + MFI)/(GFP - MFI)
B1	169
B2	345
B3	145
B4	413
B5	404
B6	120
B7	170
B8	215
B12	34.4
B9	198
B10	168

Target: T2, human CCR8
Test: FACS, competition with CCL1 on CHO-K1-human CCR8 cells

Binder	IC50	Max Inhibition (%)
B11	146 pM	99.6%

Target: T1, human CCR8
Test: FACS competition, hybridoma supernatant with 4 nM AF647-human CCL1 on human CCR8 cells

Binder	Inhibition Rate (%)
B1	100%
B2	84.8%
B3	94.7%
B4	88.9%
B5	92.4%
B6	90.2%
B7	99.2%
B8	99.1%
B12	95.1%
B9	99.4%
B10	99.1%
